In US20210324028A1 (Pfizer, published 2021):
Substitutions are numbered along the chain they refer to. In names and notes the source's numbering stands. Each block holds one binder with its values, some of them ahead of it.

What was measured:
human IL-2Rβ = target: T1, human IL-2Rβ (human, UniProt P14784 27-240, limits assumed); experiment: SPR, steady state
T1 construct: also called hIL-2Rβ; IL-2 receptor beta
T1 sequence (looked up): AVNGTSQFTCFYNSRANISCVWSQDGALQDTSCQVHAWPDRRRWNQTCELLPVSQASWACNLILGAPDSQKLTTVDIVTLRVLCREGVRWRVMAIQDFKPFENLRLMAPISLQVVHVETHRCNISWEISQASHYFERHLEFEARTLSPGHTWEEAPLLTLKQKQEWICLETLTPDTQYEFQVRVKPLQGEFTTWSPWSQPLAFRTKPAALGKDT

human IL-15Rα = target: T2, human IL-15Rα (human, UniProt Q13261 31-205, limits assumed); experiment: SPR, steady state
T2 construct: also called hIL-15Rα; IL-15 receptor alpha
T2 sequence (Q13261 31-205 limits assumed): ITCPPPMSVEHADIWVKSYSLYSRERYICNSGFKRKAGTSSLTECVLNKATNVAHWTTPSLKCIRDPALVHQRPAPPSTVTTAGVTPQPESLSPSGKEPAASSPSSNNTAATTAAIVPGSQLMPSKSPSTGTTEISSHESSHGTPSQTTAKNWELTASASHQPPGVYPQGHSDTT

Kd (human IL-2Rβ): 197 nM
Kd (human IL-15Rα): 111 nM
B1: hIL-15 V49R/D30Q (ligand)
chain: NWVNVISDLKKIEDLIQSMHIDATLYTESQVHPSCKVTAMKCFLLELQRISLESGDASIHDTVENLIILANNSLSSNGNVTESGCKECEELEEKNIKEFLQSFVHIVQMFINTGGGGSGHHHHHHHHGGGLNDIFEAQKIEWHE

Kd (human IL-2Rβ): 247 nM
Kd (human IL-15Rα): 99.8 nM
B2: hIL-15 V49R/H32V (ligand)
chain: B1 chain with Q30D, H32V

Kd (human IL-2Rβ): 159 nM
Kd (human IL-15Rα): 189 nM
B3: hIL-15 V49R/H32L (ligand)
chain: B1 chain with Q30D, H32L

Kd (human IL-2Rβ): 124 nM
Kd (human IL-15Rα): 85.9 nM
B4: hIL-15 V49R/H32N (ligand)
chain: B1 chain with Q30D, H32N

Kd (human IL-2Rβ): > 500 nM
Kd (human IL-15Rα): 76.3 nM
B5: hIL-15 V49R/I68T (ligand)
chain: B1 chain with Q30D, I68T

Kd (human IL-2Rβ): 321 nM
Kd (human IL-15Rα): 150 nM
B6: hIL-15 V49R/K10A (ligand)
chain: B1 chain with K10A, Q30D

Kd (human IL-2Rβ): > 500 nM
Kd (human IL-15Rα): 223 nM
B7: hIL-15 V49R/I111S (ligand)
chain: B1 chain with Q30D, I111S

Kd (human IL-2Rβ): 258 nM
Kd (human IL-15Rα): 153 nM
B8: hIL-15 V49R/D30V (ligand)
chain: B1 chain with Q30V

Kd (human IL-2Rβ): 149 nM
Kd (human IL-15Rα): 92.8 nM
B9: hIL-15 V49R/H32K (ligand)
chain: B1 chain with Q30D, H32K

Kd (human IL-2Rβ): 391 nM
Kd (human IL-15Rα): 122 nM
B10: hIL-15 V49R/K10M (ligand)
chain: B1 chain with K10M, Q30D

Kd (human IL-2Rβ): > 1000 nM
Kd (human IL-15Rα): 78.5 nM
B11: hIL-15 V49R/I68F (ligand)
chain: B1 chain with Q30D, I68F

Kd (human IL-2Rβ): 230 nM
Kd (human IL-15Rα): 128 nM
B12: hIL-15 V49R/K10N (ligand)
chain: B1 chain with K10N, Q30D

Kd (human IL-2Rβ): 269 nM
Kd (human IL-15Rα): 184 nM
B13: hIL-15 V49R/D30T (ligand)
chain: B1 chain with Q30T

Kd (human IL-2Rβ): > 500 nM
Kd (human IL-15Rα): 209 nM
B14: hIL-15 V49R/K10G (ligand)
chain: B1 chain with K10G, Q30D

Kd (human IL-2Rβ): 397 nM
Kd (human IL-15Rα): 199 nM
B15: hIL-15 V49R/I111K (ligand)
chain: B1 chain with Q30D, I111K

Kd (human IL-2Rβ): 296 nM
Kd (human IL-15Rα): 104 nM
B16: hIL-15 V49R/I68V (ligand)
chain: B1 chain with Q30D, I68V

Kd (human IL-2Rβ): > 1000 nM
Kd (human IL-15Rα): 87.6 nM
B17: hIL-15 V49R/I68H (ligand)
chain: B1 chain with Q30D, I68H

Kd (human IL-2Rβ): > 500 nM
Kd (human IL-15Rα): 214 nM
B18: hIL-15 V49R/I111D (ligand)
chain: B1 chain with Q30D, I111D

Kd (human IL-2Rβ): 161 nM
Kd (human IL-15Rα): 134 nM
B19: hIL-15 V49R/H32M (ligand)
chain: B1 chain with Q30D, H32M

Kd (human IL-2Rβ): 147 nM
Kd (human IL-15Rα): 64 nM
B20: hIL-15 V49R/H32Q (ligand)
chain: B1 chain with Q30D, H32Q

Kd (human IL-2Rβ): > 500 nM
Kd (human IL-15Rα): 127 nM
B21: hIL-15 V49R/E64Q (ligand)
chain: B1 chain with Q30D, E64Q

Kd (human IL-2Rβ): > 500 nM
Kd (human IL-15Rα): 113 nM
B22: hIL-15 V49R/I68A (ligand)
chain: B1 chain with Q30D, I68A

Kd (human IL-2Rβ): 250 nM
Kd (human IL-15Rα): 100 nM
B23: hIL-15 V49R/K10Q (ligand)
chain: B1 chain with K10Q, Q30D

Kd (human IL-2Rβ): > 500 nM
Kd (human IL-15Rα): 141 nM
B24: hIL-15 V49R/E64T (ligand)
chain: B1 chain with Q30D, E64T

Kd (human IL-2Rβ): 496 nM
Kd (human IL-15Rα): 195 nM
B25: hIL-15 V49R/K10S (ligand)
chain: B1 chain with K10S, Q30D

Kd (human IL-2Rβ): > 1000 nM
Kd (human IL-15Rα): 112 nM
B26: hIL-15 V49R/E64H (ligand)
chain: B1 chain with Q30D, E64H

Kd (human IL-2Rβ): > 1000 nM
Kd (human IL-15Rα): 92.9 nM
B27: hIL-15 V49R/I68Y (ligand)
chain: B1 chain with Q30D, I68Y

Kd (human IL-2Rβ): 176 nM
Kd (human IL-15Rα): 110 nM
B28: hIL-15 V49R/H32S (ligand)
chain: B1 chain with Q30D, H32S

Kd (human IL-2Rβ): 290 nM
Kd (human IL-15Rα): 155 nM
B29: hIL-15 V49R/D30R (ligand)
chain: B1 chain with Q30R

Kd (human IL-2Rβ): 114 nM
Kd (human IL-15Rα): 85.6 nM
B30: hIL-15 V49R/K10H (ligand)
chain: B1 chain with K10H, Q30D

Kd (human IL-2Rβ): 146 nM
Kd (human IL-15Rα): 162 nM
B31: hIL-15 V49R/H32P (ligand)
chain: B1 chain with Q30D, H32P

Kd (human IL-2Rβ): 245 nM
Kd (human IL-15Rα): 73.6 nM
B32: hIL-15 V49R/I68L (ligand)
chain: B1 chain with Q30D, I68L

Kd (human IL-2Rβ): > 500 nM
Kd (human IL-15Rα): 78.2 nM
B33: hIL-15 V49R/D61A (ligand)
chain: B1 chain with Q30D, D61A

Kd (human IL-2Rβ): 130 nM
Kd (human IL-15Rα): 108 nM
B34: hIL-15 V49R/H32E (ligand)
chain: B1 chain with Q30D, H32E

Kd (human IL-2Rβ): 231 nM
Kd (human IL-15Rα): 159 nM
B35: hIL-15 V49R/D30Y (ligand)
chain: B1 chain with Q30Y

Kd (human IL-2Rβ): 348 nM
Kd (human IL-15Rα): 124 nM
B36: hIL-15 V49R/K10L (ligand)
chain: B1 chain with K10L, Q30D

Kd (human IL-2Rβ): > 1000 nM
Kd (human IL-15Rα): 96.2 nM
B37: hIL-15 V49R/I68M (ligand)
chain: B1 chain with Q30D, I68M

Kd (human IL-2Rβ): > 500 nM
Kd (human IL-15Rα): 102 nM
B38: hIL-15 V49R/I68R (ligand)
chain: B1 chain with Q30D, I68R

Kd (human IL-2Rβ): 123 nM
Kd (human IL-15Rα): 85.5 nM
B39: hIL-15 V49R/H32D (ligand)
chain: B1 chain with Q30D, H32D

Kd (human IL-2Rβ): 375 nM
Kd (human IL-15Rα): 173 nM
B40: hIL-15 V49R/I111A (ligand)
chain: B1 chain with Q30D, I111A

Kd (human IL-2Rβ): > 500 nM
Kd (human IL-15Rα): 130 nM
B41: hIL-15 V49R/E64A (ligand)
chain: B1 chain with Q30D, E64A

Kd (human IL-2Rβ): 156 nM
Kd (human IL-15Rα): ~131 nM
B42: hIL-15 V49R/H32R (ligand)
chain: B1 chain with Q30D, H32R

Kd (human IL-2Rβ): 291 nM
Kd (human IL-15Rα): 108 nM
B43: hIL-15 V49R/E64D (ligand)
chain: B1 chain with Q30D, E64D

Kd (human IL-2Rβ): 218 nM
Kd (human IL-15Rα): 152 nM
B44: hIL-15 V49R/H32A (ligand)
chain: B1 chain with Q30D, H32A

Kd (human IL-2Rβ): 249 nM
Kd (human IL-15Rα): 146 nM
B45: hIL-15 V49R/D30S (ligand)
chain: B1 chain with Q30S

Kd (human IL-2Rβ): > 1000 nM
Kd (human IL-15Rα): 85 nM
B46: hIL-15 V49R/I68N (ligand)
chain: B1 chain with Q30D, I68N

Kd (human IL-2Rβ): > 500 nM
Kd (human IL-15Rα): 115 nM
B47: hIL-15 V49R/E64N (ligand)
chain: B1 chain with Q30D, E64N

Kd (human IL-2Rβ): 459 nM
Kd (human IL-15Rα): 249 nM
B48: hIL-15 V49R/H32G (ligand)
chain: B1 chain with Q30D, H32G

Kd (human IL-2Rβ): > 500 nM
Kd (human IL-15Rα): 270 nM
B49: hIL-15 V49R/K10D (ligand)
chain: B1 chain with K10D, Q30D

Kd (human IL-2Rβ): 146 nM
Kd (human IL-15Rα): 94.5 nM
B50: hIL-15 V49R/K10R (ligand)
chain: B1 chain with K10R, Q30D

Kd (human IL-2Rβ): 110 nM
Kd (human IL-15Rα): 113 nM
B51: hIL-15 V49R/H32I (ligand)
chain: B1 chain with Q30D, H32I

Kd (human IL-2Rβ): 360 nM
Kd (human IL-15Rα): 126 nM
B52: hIL-15 V49R/K10E (ligand)
chain: B1 chain with K10E, Q30D
